# Source: PMC3750193, “Disassembly of All SNARE Complexes by N-Ethylmaleimide-sensitive Factor (NSF) Is Initiated by a Conserved 1:1 Interaction between α-Soluble NSF Attachment Protein (SNAP) and SNARE Complex*^([image sbox.jpg])” (The Journal of Biological Chemistry, 2013)
# B1: α-soluble NSF attachment protein (α-SNAP) (natural protein, rat, UniProt P54921 1-295, looked up)
# chain: MDTSGKQAEAMALLAEAERKVKNSQSFFSGLFGGSSKIEEACEIYARAANMFKMAKNWSAAGNAFCQAAQLHLQLQSKHDAATCFVDAGNAFKKADPQEAINCLMRAIEIYTDMGRFTIAAKHHISIAEIYETELVDVEKAIAHYEQSADYYKGEESNSSANKCLLKVAGYAAQLEQYQKAIDIYEQVGTSAMDSPLLKYSAKDYFFKAALCHFCIDMLNAKLAVQKYEELFPAFSDSRECKLMKKLLEAHEEQNVDSYTESVKEYDSISRLDQWLTTMLLRIKKTIQGDEEDLR
# notes: α-SNAP, rat; His6 tag removed with tobacco etch virus protease; source: E. coli BL21(DE3), purified (Ni-NTA, Superdex 200)
# Assays:
# Assay in all cases: other fluorescence titration; change in Oregon Green 488 fluorescence intensity of the labeled SNARE complex as a function of α-SNAP concentration; fit y = Fmax·x/(KD + x); three independent experiments
# [1] = biological target: T1, VAMP8-syntaxin4-SNAP23 ternary SNARE complex, labeled with Oregon Green 488 (rat, UniProt Q9WUF4 1-76; Q08850 1-274; O70377 1-210, I76C | C141S | E257C | I261C, Oregon Green 488 (maleimide) on cysteines; the labeled endogenous and mutant cysteines are shown in Figure 1A | Oregon Green 488 (maleimide) on cysteines; the labeled endogenous and mutant cysteines …); conditions: both partners purified
# T1 construct: VAMP8 (endobrevin), rat, residues 1-76; syntaxin4A, rat, residues 1-274; tag-free; SNAP23, rat; Removal of the His6 tag is told only for α-SNAP; also called VAMP8(1–76)-I76C-syntaxin4A(1–274)-C141S/E257C/I261C-SNAP23; source: E. coli BL21(DE3), coexpressed, purified (Ni-NTA, Superdex 200); copies: + +
# T1 sequence (looked up) 1: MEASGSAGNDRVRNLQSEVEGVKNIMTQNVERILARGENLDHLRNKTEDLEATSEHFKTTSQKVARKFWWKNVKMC
# T1 sequence (looked up) 2: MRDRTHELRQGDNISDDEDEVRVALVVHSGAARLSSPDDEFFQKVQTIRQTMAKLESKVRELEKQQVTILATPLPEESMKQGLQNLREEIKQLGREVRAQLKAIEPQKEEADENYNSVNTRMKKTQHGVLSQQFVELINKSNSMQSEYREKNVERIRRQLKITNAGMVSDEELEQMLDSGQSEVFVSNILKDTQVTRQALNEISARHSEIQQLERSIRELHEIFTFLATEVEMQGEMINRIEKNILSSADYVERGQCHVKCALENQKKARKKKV
# T1 sequence (looked up) 3: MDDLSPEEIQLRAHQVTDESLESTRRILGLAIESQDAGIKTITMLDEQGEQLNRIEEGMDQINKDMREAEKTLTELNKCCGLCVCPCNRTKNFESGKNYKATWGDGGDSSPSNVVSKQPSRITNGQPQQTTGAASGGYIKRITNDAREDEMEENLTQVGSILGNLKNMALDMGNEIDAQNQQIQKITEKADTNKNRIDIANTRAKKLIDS
# [2] = biological target: T2, VAMP7-syntaxin4-SNAP23 ternary SNARE complex, labeled with Oregon Green 488 (rat, UniProt Q9JHW5 1-190; Q08850 1-274; O70377 1-210, C21S | C56V | C141S | E257C | I261C, Oregon Green 488 (maleimide) on cysteines; the labeled endogenous and mutant cysteines are shown in Figure 1A); conditions: both partners purified
# T2 construct: VAMP7, rat, residues 1-190; syntaxin4A, rat, residues 1-274; tag-free; SNAP23, rat; Removal of the His6 tag is told only for α-SNAP; also called VAMP7(1–190)-C21S/C56V-syntaxin4A(1–274)-C141S/E257C/I261C-SNAP23; source: E. coli BL21(DE3), coexpressed, purified (Ni-NTA, Superdex 200); copies: + +
# T2 sequence (looked up) 1: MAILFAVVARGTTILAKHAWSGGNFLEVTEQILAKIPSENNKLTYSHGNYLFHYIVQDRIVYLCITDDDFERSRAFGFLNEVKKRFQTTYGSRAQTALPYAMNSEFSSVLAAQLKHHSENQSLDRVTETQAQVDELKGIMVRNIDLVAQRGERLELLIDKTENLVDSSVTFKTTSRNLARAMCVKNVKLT
# T2 sequence (looked up) 2: T1 sequence (looked up) 2
# T2 sequence (looked up) 3: T1 sequence (looked up) 3
# [3] = biological target: all four ternary SNARE complexes
binder,measurement,setting,value
B1,binding result,[1],binds
same,binding result,[2],binds
same,Kd,[3],200 to 600 nM
